Assay results published in patent US20230136228A1 (LAMKAP BIO ALPHA, published 2023).

T1: human CEACAM5 (carcinoembryonic antigen, CEA), cell surface (human, UniProt P06731 35-685)
T1 construct: whole, on cells; also called CD66e
T1 sequence (looked up): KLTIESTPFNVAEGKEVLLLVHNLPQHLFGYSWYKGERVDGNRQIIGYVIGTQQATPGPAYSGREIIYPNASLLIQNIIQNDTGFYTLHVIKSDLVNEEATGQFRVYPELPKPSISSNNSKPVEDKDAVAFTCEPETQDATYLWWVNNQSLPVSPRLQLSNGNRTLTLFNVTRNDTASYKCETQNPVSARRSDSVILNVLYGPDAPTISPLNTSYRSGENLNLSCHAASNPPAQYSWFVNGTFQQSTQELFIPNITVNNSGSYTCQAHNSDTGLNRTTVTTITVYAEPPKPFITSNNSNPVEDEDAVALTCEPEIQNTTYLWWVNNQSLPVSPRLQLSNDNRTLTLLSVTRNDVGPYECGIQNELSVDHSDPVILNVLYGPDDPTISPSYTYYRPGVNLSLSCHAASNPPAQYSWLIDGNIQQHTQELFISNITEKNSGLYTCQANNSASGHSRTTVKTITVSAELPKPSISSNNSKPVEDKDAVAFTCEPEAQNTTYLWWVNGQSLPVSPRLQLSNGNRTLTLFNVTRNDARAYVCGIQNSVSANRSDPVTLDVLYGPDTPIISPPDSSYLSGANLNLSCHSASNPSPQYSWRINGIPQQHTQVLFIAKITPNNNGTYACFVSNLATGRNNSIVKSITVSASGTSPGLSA

T2: human CEACAM8 (human, UniProt P31997 35-320)
T2 construct: whole, on cells
T2 sequence (looked up): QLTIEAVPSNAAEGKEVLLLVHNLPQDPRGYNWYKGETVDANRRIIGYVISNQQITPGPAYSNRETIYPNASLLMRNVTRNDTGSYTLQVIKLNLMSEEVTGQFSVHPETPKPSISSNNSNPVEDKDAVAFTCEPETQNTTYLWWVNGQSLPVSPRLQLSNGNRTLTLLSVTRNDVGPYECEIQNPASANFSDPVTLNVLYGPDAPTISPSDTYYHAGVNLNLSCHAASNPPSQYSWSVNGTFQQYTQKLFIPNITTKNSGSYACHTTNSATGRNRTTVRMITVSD

T3: human CEACAM1 (human, UniProt P13688 35-526)
T3 construct: whole, on cells
T3 sequence (looked up): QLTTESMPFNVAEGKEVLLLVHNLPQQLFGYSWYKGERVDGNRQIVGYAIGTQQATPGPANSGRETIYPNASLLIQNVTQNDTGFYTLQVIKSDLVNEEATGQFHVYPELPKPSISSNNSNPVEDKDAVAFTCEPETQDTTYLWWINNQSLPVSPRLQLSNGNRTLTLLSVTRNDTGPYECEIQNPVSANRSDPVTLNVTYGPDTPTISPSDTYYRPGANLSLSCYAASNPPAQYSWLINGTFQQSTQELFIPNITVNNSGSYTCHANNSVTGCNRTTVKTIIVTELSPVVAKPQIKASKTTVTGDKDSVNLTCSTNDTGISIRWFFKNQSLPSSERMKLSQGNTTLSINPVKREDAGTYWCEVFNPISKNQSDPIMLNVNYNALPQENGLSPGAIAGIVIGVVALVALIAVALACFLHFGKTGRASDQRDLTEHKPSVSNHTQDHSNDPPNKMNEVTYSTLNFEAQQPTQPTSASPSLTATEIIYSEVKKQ

B1: AB72L3-1/N (bispecific antibody, human IgG1, kappa, lambda, L234A L235A)
heavy: EVQLVESGGGLVQPGGSLKLSCAASGFTFNTYAMNWVRQAPGKGLEWVGRIRSKYNNYATYYADSVKDRFTISRDDSKNTAYLQMNSLKTEDTAVYYCVRHGNFGNSYVSWFAYWGQGTLVTVSSASTKGPSVFPLAPSSKSTSGGTAALGCLVKDYFPEPVTVSWNSGALTSGVHTFPAVLQSSGLYSLSSVVTVPSSSLGTQTYICNVNHKPSNTKVDKRVEPKSCDKTHTCPPCPAPEAAGGPSVFLFPPKPKDTLMISRTPEVTCVVVDVSHEDPEVKFNWYVDGVEVHNAKTKPREEQYNSTYRVVSVLTVLHQDWLNGKEYKCKVSNKALAAPIEKTISKAKGQPREPQVYTLPPSREEMTKNQVSLTCLVKGFYPSDIAVEWESNGQPENNYKTTPPVLDSDGSFFLYSKLTVDKSRWQQGNVFSCSVMHEALHNHYTQKSLSLSPG
light 1: EIVLTQSPATLSLSPGERATLSCRASQSVNSNLNWYQQKPGQAPRLLIYHSTNRPRGIPARFSGSGSGTDFTLTISSLEPEDFAVYYCQQFDYFKEYNTFGQGTKVEIKRTVAAPSVFIFPPSDEQLKSGTASVVCLLNNFYPREAKVQWKVDNALQSGNSQESVTEQDSKDSTYSLSSTLTLSKADYEKHKVYACEVTHQGLSSPVTKSFNRGEC
light 2: QTVVTQEPSLTVSPGGTVTLTCRSSTGAVTTSNYANWFQQKPGQAPRGLIGGTNKRAPGTPARFSGSLLGGKAALTLSGAQPEDEAEYYCALWYKQRWVFGGGTKLTVLGQPKAAPSVTLFPPSSEELQANKATLVCLISDFYPGAVTVAWKADSSPVKAGVETTTPSKQSNNKYAASSYLSLTPEQWKSHRSYSCQVTHEGSTVEKTVAPTECS
notes: Kappa-lambda body, lead optimization wave 2
B2: AB73L3-1/N (bispecific antibody, human IgG1, kappa, lambda, L234A L235A)
heavy: EVQLVESGGGLVQPGGSLKLSCAASGFTFNTYAMNWVRQAPGKGLEWVGRIRSKYNNYATYYADSVKDRFTISRDDSKNTAYLQMNSLKTEDTAVYYCVRHGNFGNSYVSWFAYWGQGTLVTVSSASTKGPSVFPLAPSSKSTSGGTAALGCLVKDYFPEPVTVSWNSGALTSGVHTFPAVLQSSGLYSLSSVVTVPSSSLGTQTYICNVNHKPSNTKVDKRVEPKSCDKTHTCPPCPAPEAAGGPSVFLFPPKPKDTLMISRTPEVTCVVVDVSHEDPEVKFNWYVDGVEVHNAKTKPREEQYNSTYRVVSVLTVLHQDWLNGKEYKCKVSNKALAAPIEKTISKAKGQPREPQVYTLPPSREEMTKNQVSLTCLVKGFYPSDIAVEWESNGQPENNYKTTPPVLDSDGSFFLYSKLTVDKSRWQQGNVFSCSVMHEALHNHYTQKSLSLSPG
light 1: EIVLTQSPATLSLSPGERATLSCRASQSVNSNLNWYQQKPGQAPRLLIYHSNNRPHGIPARFSGSGSGTDFTLTISSLEPEDFAVYYCQQFDYFREYNTFGQGTKVEIKRTVAAPSVFIFPPSDEQLKSGTASVVCLLNNFYPREAKVQWKVDNALQSGNSQESVTEQDSKDSTYSLSSTLTLSKADYEKHKVYACEVTHQGLSSPVTKSFNRGEC
light 2: QTVVTQEPSLTVSPGGTVTLTCRSSTGAVTTSNYANWFQQKPGQAPRGLIGGTNKRAPGTPARFSGSLLGGKAALTLSGAQPEDEAEYYCALWYKQRWVFGGGTKLTVLGQPKAAPSVTLFPPSSEELQANKATLVCLISDFYPGAVTVAWKADSSPVKAGVETTTPSKQSNNKYAASSYLSLTPEQWKSHRSYSCQVTHEGSTVEKTVAPTECS
notes: as for B1

Legend:
[1] = molecular target: T1, human CEACAM5 (carcinoembryonic …); test: flow cytometry, MKN-45 cells
Method in brief: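 Binding of bispecific antibody at 200, 1000 and 5000 nM measured by flow cytometry on CEACAM5-positive MKN45 (155′000 molecules/cell), with CEACAM5-negative A549 or MKN45 CRISPR knock-out cells as negatives. Binding expressed relative to reference TCB2014.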

[2] = molecular target: T1, human CEACAM5 (carcinoembryonic …); test: flow cytometry, MFI on transfected PEAK cells divided by MFI on WT PEAK cells
Method: (§1) Similarly, vectors encoding the full-length version of cyno CEACAM 5 and 6 are also used to express these proteins at the surface of PEAK and/or CHO cells. Non-transfected PEAK and/or CHO cells are used as negative control. Cells are harvested, counted, checked for viability and resuspended at 3×10⁶ cells/ml in FACS buffer (PBS 2% BSA, 0.1% NaN₃). 100 μl of the cell suspension are distributed in V-bottom 96-well plates (3×10⁵ cells/well). The supernatant is removed by centrifugation 3 minutes at 4° C., 1300 rpm and the cells incubated for 15 minutes at 4° C. with increasing concentrations of the antibody according to the invention. The antibodies carrying the anti-CEACAM5 arms to test are diluted in FACS buffer and the concentration range is 30 pM-500 nM. Cells are washed twice with cold FACS buffer and re-incubated for further 15 minutes at 4° C. with a compatible anti-human IgG secondary antibody. Cells are washed twice with cold FACS buffer and resuspended in 300 μl FACS buffer with 1:1500-diluted TOPRO-3 (Invitrogen). Fluorescence is measured using a FACSCalibur™ (BD Biosciences) or a Cytoflex Platform (Beckman Coulter). Dose-response binding curves are fitted using GraphPad Prism8 software. In the same manner, CEACAM1, CEACAM6 and other CEACAMs can be characterized.
(§2) For the bispecific antibodies AB17L3-1/N, AB71L3-1/N, AB72L3-1/N, AB73L3-1/N the MFI measured for binding to CEACAM5 transfected cells was found between 29000 and 41000 (Table 2). In contrast MFI found by using PEAK cells transfected with CEACAM 1,3,4,6,8 were found below 1000 with the only exception of a strong signal for AB72L3-1/N on CEACAM8 transfected cells. When MFI values obtained on transfected cells expressing any given CEACAM are divided by the values obtained on WT PEAK cells, “factors to PEAK WT” can be calculated (Table 3). With the exception of AB72L3-1/N, the antibodies of the invention are all specific to CEACAM5, as the “factor to PEAK WT” values are all below 2.0.

human CEACAM8 = molecular target: T2, human CEACAM8; test: as above
Method: as §1, §2

human CEACAM1 = molecular target: T3, human CEACAM1; test: as above
Method: as §1, §2

Row | Binder | EC50 [1] | Top MFI value [1] | binding higher than TCB2014 (at 200 nM, 1000 nM and 5000 nM) [1] | Factor to PEAK WT [2] | Factor to PEAK WT (human CEACAM8) | Factor to PEAK WT (human CEACAM1)
1 | B1 | 24.5 nM | 963000 MFI | ≥ 40% | 85.3 fold | 13.1 fold | 1.4 fold
2 | B2 | 27.8 nM | 921000 MFI | ≥ 40% | 70.8 fold | 0.8 fold | 1.1 fold
